Data published in PMC8835902, “DNA Polymerase-Parental DNA Interaction Is Essential for Helicase-Polymerase Coupling during Bacteriophage T7 DNA Replication” (International Journal of Molecular Sciences, 2022).

Experiments:
[1] = target: T1, K3Dgp5-trx complex (T7 gp5 K545D, K549D, K553D with thioredoxin) (bacteriophage T7 | , UniProt P00581 1-704; P0AA25 1-109 = thioredoxin, D5A | E7A | K545D | K549D | K553D); test: native gel or EMSA; supershift: 10 nM fork DNA (2 gaps) pre-incubated with gp5-trx variants (60-100 nM) 15 min at 25 °C, then rising amounts of hexameric EQgp4, 15 min at 25 °C; 20 mM Hepes pH 7.5, 1 mM EDTA, 100 mM KCl, 0.1 mM βME, 5% glycerol, 0.10 mg/mL BSA; 4% polyacrylamide gel; fitted to the Hill equation; conditions: both partners purified
T1 construct: bacteriophage T7 gp5 DNA polymerase (D5A, E7A) with the positively charged cleft mutations K545D, K549D, K553D; Mutagenesis on the plasmid encoding WTgp5 (D5A, E7A); also called DNA-K3Dgp5; source: E. coli BL21 (DE3), co-expressed, purified (Heparin HP, MonoQ)

[2] = target: T2, WTgp5-trx complex (T7 gp5 DNA polymerase D5A, E7A with thioredoxin) (bacteriophage T7 | , UniProt P00581 1-704; P0AA25 1-109 = thioredoxin, D5A | E7A); test: as above; conditions: both partners purified
T2 construct: gp5 in pET15b, trxA in pRSFDuet; no tag is mentioned and purification was by heparin and ion exchange; also called DNA-WTgp5; source: E. coli BL21 (DE3), co-expressed, purified (Heparin HP, MonoQ)

B1: T7 gp4 helicase-primase, active site mutant E343Q (enzyme, bacteriophage T7, UniProt P03692 1-566, looked up)
chain: MDNSHDSDSVFLYHIPCDNCGSSDGNSLFSDGHTFCYVCEKWTAGNEDTKERASKRKPSGGKPMTYNVWNFGESNGRYSALTARGISKETCQKAGYWIAKVDGVMYQVADYRDQNGNIVSQKVRDKDKNFKTTGSHKSDALFGKHLWNGGKKIVVTEGEIDMLTVMELQDCKYPVVSLGHGASAAKKTCAANYEYFDQFEQIILMFDMDEAGRKAVEEAAQVLPAGKVRVAVLPCKDANECHLNGHDREIMEQVWNAGPWIPDGVVSALSLRERIREHLSSEESVGLLFSGCTGINDKTLGARGGEVIMVTSGSGMGKSTFVRQQALQWGTAMGKKVGLAMLQESVEETAEDLIGLHNRVRLRQSDSLKREIIENGKFDQWFDELFGNDTFHLYDSFAEAETDRLLAKLAYMRSGLGCDVIILDHISIVVSASGESDERKMIDNLMTKLKGFAKSTGVVLVVICHLKNPDKGKAHEEGRPVSITDLRGSGALRQLSDTIIALERNQQGDMPNLVLVRILKCRFTGDTGIAGYMEYNKETGWLEPSSYSGEEESHSESTDWSNDTDF
notes: bacteriophage T7 gp4 helicase-primase, full-length, with E343Q; modified pET28a with histidine tags and a PreScission site; Added as 'hexameric EQgp4' in the EMSA; also called EQgp4; E343Q gp4; source: E. coli C3013I (T7 Express lysY/Iq), purified (Histrap, MonoQ)
What does the source list for B1?
Kd with fork DNA (gp4 on fork DNA pre-bound to gp5-trx) [1]: 6 ± 1 nM; Kd with fork DNA (gp4 on fork DNA pre-bound to gp5-trx) [2]: 8 ± 1 nM
